Experimental data taken from patent publication US20210401931A1, “METHODS AND MATERIALS FOR TREATING CANCER” (Mayo Foundation for Medical Education and Research, priority 2018, published 2021).

Assays:
NFκB target genes = assay: Expression of NFκB target genes in PC-3 cells (RNA-seq, RT-qPCR); assay type: cell-based, human; conditions: PC-3 cells, IKK-16 5 μM or ACHP 20 μM, 24 hours
Protocol: FIGS. 4A-G. RB globally regulates NFkB transcriptional program in cells. […] (F, G) PC-3 cell were treated with or without palbociclib (5 μM) for 24 hours or PC-3 cells were infected with lentivirus expressing control shRNA or RB-specific shRNA following puromycin selection after 48 hours infection. Cells were harvested for RT-qPCR (F) and ChIP-qPCR (G) analysis of p65 binding at the promotor of PD-L1, GADD45B, NR4A2, and CD83. All data were shown as mean values±SD (n=3). * P<0.05, ** P<0.01, ***P<0.001.
FIGS. 16A-K. Mutual exclusivity of PTEN and MAP3K7 gene deletion in human cancers and CDK4/6 inhibition-mediated blockage of MAP3K7 deficiency-induced death of PTEN-null cells. (A) Genetic alterations of MAP3K7 and PTEN genes in the TCGA prostate cancer dataset. (B) Genetic alterations of MAP3K7 and PTEN genes in lymphoid neoplasm diffuse large B-cell lymphoma, stomach adenocarcinoma, pancreatic cancer, liver cancer, bladder urothelial carcinoma, and lung adenocarcinoma. (C-E) PC-3 cells were infected with lentivirus expressing control or MAP3K7-specific shRNAs. 72 hours after infection, cells were harvested for western blotting (C), cell growth assay (D), and colony formation assay (E). All data were shown as mean values±SD (n=3). ns, not significant, * P<0.05 comparing to the shControl group. (F-H) LNCaP-RF prostate cancer cells were infected with lentivirus expressing control or MAP3K7-specific shRNAs. 72 hours after infection, cells were harvested for western blotting (F), cell growth assay (G), and colony formation assay (H). All data are shown as mean values±SD (n=3). ns, not significant, * P<0.05 comparing to the shControl group. (I-K) PC-3 cells were infected with lentivirus expressing control, MAP3K7 or CHD1-specific shRNAs. 72 hours after infection, cells were treated with DMSO or palbociclib (5 μM). […]
FIGS. 17A-I. Negative regulation of MAP3K7-IKK-NFκB and CHD1-NFκB signaling by RB. […] 72 hours after infection and puromycin selection, cells were injected s.c. into the right flank of NSG mice, and tumor growth was measured for 21 days. […]

p65 = target: T1, p65 (Homo sapiens, UniProt Q04206); assay: Co-IP of p65 by SFB-tagged RL peptide in 293T cells; assay type: binding; conditions: 48 hours after transfection
T1 construct: endogenous in cells; host or cells: 293T
T1 sequence (Q04206 whole entry): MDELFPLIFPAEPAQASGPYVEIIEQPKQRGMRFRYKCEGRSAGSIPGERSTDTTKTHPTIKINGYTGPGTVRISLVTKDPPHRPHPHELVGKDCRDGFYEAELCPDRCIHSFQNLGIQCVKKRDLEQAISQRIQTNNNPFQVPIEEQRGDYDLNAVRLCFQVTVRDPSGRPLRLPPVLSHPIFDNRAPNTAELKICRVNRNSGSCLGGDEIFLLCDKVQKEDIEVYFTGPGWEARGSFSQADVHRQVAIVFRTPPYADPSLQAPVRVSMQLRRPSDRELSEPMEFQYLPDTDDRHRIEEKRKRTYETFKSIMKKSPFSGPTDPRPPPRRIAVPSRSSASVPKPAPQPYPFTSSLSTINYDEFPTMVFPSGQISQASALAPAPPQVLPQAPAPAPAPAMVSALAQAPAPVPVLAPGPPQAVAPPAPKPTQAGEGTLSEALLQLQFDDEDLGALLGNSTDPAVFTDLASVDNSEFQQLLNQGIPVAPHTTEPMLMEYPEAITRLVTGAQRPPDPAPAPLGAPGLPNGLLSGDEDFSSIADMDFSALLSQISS
Protocol: FIGS. 10A-G. (A) Schematic diagram depicting a set of RB-N recombinant protein constructs. Western blot analysis of p65 proteins in PC-3 cells whole cell lysate pulled down by GST or GST-RB-N recombinant proteins. Stars indicate expected molecular weight. (B) Western blot analysis of in vitro transcribed and translated p65 proteins pulled down by GST or GST-RB recombinant proteins. Stars indicate expected molecular weight. (C) Western blot analysis of WCL and co-IP samples in 293T cells 48 h after transfected with indicated constructs. (D) Schematic diagram depicting an evolutionally conserved R-linker region in the N-terminal of RB. FIG. 10D discloses SEQ ID NOS 265 and 271-274, respectively, in order of appearance. (E) Western blot analysis of WCL and co-IP samples in 293T cells 48 hours after transfected with indicated constructs. (F) PC-3 cells were transfected with indicated plasmids. Western blot analysis of HA-RB proteins in PC-3 whole cell lysate pulled down by GST or GST-p65 recombinant proteins. Stars indicate expected molecular weight. (G) Schematic diagram depicting fully positively charged RB-N allows otherwise negatively charged by S249/T252 phosphorylation to bind to negatively charged 166FSLMV170 motif (SEQ ID NO: 286) in EID1. FIG. 10G discloses SEQ ID NOS 265-266 and 275, respectively, in order of appearance. […]

p65 NFκB protein [1] = target: T2, p65 NFκB protein (human, UniProt Q04206 1-551); assay: co-IP from 293T cells transfected with SFB-tagged constructs (FIG. 10C)
T2 construct: The same entry is used for endogenous p65 and for in vitro translated p65; which one stood in the assay is told under assay; also called endogenous p65; in vitro transcribed and translated p65 (pCMV4 p65)
T2 sequence (Q04206 whole entry): as above

[2] = target: T3, retinoblastoma protein RB (endogenous) (human, UniProt P06400 2-928); assay: co-IP of endogenous proteins in PC-3 cells, western blot (FIG. 2A)
T3 construct: Endogenous protein of cell lysates, phosphorylation state as in the cells; also called RB1; endogenous RB
T3 sequence (looked up): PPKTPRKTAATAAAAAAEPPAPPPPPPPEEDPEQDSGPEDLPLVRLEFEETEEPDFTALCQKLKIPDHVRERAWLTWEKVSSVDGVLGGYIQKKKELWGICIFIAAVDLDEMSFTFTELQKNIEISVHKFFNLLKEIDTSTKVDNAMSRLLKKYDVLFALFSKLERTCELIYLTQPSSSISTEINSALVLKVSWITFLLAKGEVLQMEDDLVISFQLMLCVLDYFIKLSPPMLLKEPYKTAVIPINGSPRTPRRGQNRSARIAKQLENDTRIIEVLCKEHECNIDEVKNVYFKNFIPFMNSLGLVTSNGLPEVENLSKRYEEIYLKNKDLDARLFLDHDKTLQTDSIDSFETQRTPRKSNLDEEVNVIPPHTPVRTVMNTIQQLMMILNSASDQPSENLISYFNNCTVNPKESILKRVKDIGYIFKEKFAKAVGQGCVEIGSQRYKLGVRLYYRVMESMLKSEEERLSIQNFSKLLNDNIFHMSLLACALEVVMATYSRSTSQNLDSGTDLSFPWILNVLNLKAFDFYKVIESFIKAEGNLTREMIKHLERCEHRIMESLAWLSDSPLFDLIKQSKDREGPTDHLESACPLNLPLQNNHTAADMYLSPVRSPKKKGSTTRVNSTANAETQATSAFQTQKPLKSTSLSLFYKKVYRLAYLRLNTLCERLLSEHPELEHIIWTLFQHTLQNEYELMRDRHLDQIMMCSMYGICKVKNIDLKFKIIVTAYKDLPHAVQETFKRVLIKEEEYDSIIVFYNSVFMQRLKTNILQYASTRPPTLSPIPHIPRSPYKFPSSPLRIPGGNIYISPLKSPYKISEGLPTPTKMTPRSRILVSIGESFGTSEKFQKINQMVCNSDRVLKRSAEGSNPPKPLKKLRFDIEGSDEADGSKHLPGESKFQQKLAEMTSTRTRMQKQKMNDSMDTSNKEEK

p65 NFκB protein [3] = target: T2, p65 NFκB protein; assay: GST pull down from PC-3 whole cell lysate, western blot
Protocol: Cells were lysed with IP buffer (50 mM Tris-HCl, pH 7.4, 150 mM NaCl, 1% Triton X-100, 1% sodium deoxycholate, and 1% protease inhibitor cocktails) on ice for more than 30 minutes. GST fusion proteins were immobilized on glutathione-Sepharose beads (GE Healthcare Lifesciences). After washing with lysis buffer, the beads were incubated with cell lysates overnight at 4° C. overnight. The beads were then washed six times with binding buffer and re-suspended in sample buffer. The bound proteins were subjected to western blotting analysis.

p65 NFκB protein [4] = target: T2, p65 NFκB protein; assay: in vitro protein binding assay with in vitro transcribed and translated p65 (FIG. 10A)

N#Cc1c(C2CCNCC2)cc(-c2c(O)cccc2OCC2CC2)nc1N [ACHP]
NFκB target gene expression (NFκB target genes): decreased

O=C(c1ccc(Nc2nccc(-c3cc4ccccc4s3)n2)cc1)N1CCC(N2CCCC2)CC1 [IKK-16]
NFκB target gene expression (NFκB target genes): decreased

RL-S249A/T252A: unphosphorylable (phosphorylation-resistant) mutant of the RL peptide (NGAPRAPRRGQNRSARIAKQL; left off: small tags and cut ends) [reference compound]
immunoprecipitation of p65 by SFB-tagged RL peptide (p65): largely diminished

B1: SFB-tagged RB-N (other, human, UniProt P06400 1-379, looked up, not shown: small tags and cut ends)
chain: MPPKTPRKTAATAAAAAAEPPAPPPPPPPEEDPEQDSGPEDLPLVRLEFEETEEPDFTALCQKLKIPDHVRERAWLTWEKVSSVDGVLGGYIQKKKELWGICIFIAAVDLDEMSFTFTELQKNIEISVHKFFNLLKEIDTSTKVDNAMSRLLKKYDVLFALFSKLERTCELIYLTQPSSSISTEINSALVLKVSWITFLLAKGEVLQMEDDLVISFQLMLCVLDYFIKLSPPMLLKEPYKTAVIPINGSPRTPRRGQNRSARIAKQLENDTRIIEVLCKEHECNIDEVKNVYFKNFIPFMNSLGLVTSNGLPEVENLSKRYEEIYLKNKDLDARLFLDHDKTLQTDSIDSFETQRTPRKSNLDEEVNVIPPHTPVRTVM
notes: Expressed in mammalian cells (293T, PANC-1, H1299, SK-Hep1)
binding result (p65 NFκB protein [1]): binds

B2: p50 subunit of NFκB (other, human, UniProt P19838 1-433, looked up)
chain: MAEDDPYLGRPEQMFHLDPSLTHTIFNPEVFQPQMALPTDGPYLQILEQPKQRGFRFRYVCEGPSHGGLPGASSEKNKKSYPQVKICNYVGPAKVIVQLVTNGKNIHLHAHSLVGKHCEDGICTVTAGPKDMVVGFANLGILHVTKKKVFETLEARMTEACIRGYNPGLLVHPDLAYLQAEGGGDRQLGDREKELIRQAALQQTKEMDLSVVRLMFTAFLPDSTGSFTRRLEPVVSDAIYDSKAPNASNLKIVRMDRTAGCVTGGEEIYLLCDKVQKDDIQIRFYEEEENGGVWEGFGDFSPTDVHRQFAIVFKTPKYKDINITKPASVFVQLRRKSDLETSEPKPFLYYPEIKDKEEVQRKRQKLMPNFSDSFGGGSGAGAGGGGMFGSGGGGGGTGSTGPGYSFPHYGFPTYGGITFHPGTTKSNAGMKHG
binding result [2]: no binding

B3: GST-RB-M (other, human, UniProt P06400 380-792, looked up)
chain: NTIQQLMMILNSASDQPSENLISYFNNCTVNPKESILKRVKDIGYIFKEKFAKAVGQGCVEIGSQRYKLGVRLYYRVMESMLKSEEERLSIQNFSKLLNDNIFHMSLLACALEVVMATYSRSTSQNLDSGTDLSFPWILNVLNLKAFDFYKVIESFIKAEGNLTREMIKHLERCEHRIMESLAWLSDSPLFDLIKQSKDREGPTDHLESACPLNLPLQNNHTAADMYLSPVRSPKKKGSTTRVNSTANAETQATSAFQTQKPLKSTSLSLFYKKVYRLAYLRLNTLCERLLSEHPELEHIIWTLFQHTLQNEYELMRDRHLDQIMMCSMYGICKVKNIDLKFKIIVTAYKDLPHAVQETFKRVLIKEEEYDSIIVFYNSVFMQRLKTNILQYASTRPPTLSPIPHIPRSPYKF
notes: domain: RB-M; not shown: glutathione S-transferase (GST) tag of the fusion
binding result (p65 NFκB protein [3]): no binding

B4: GST-RB-NΔ1 (N-terminal portion of RB-N, amino acids 1-266) (other, not shown: a dimerising Fc or GST; small tags and cut ends)
chain: MPPKTPRKTAATAAAAAAEPPAPPPPPPPEEDPEQDSGPEDLPLVRLEFEETEEPDFTALCQKLKIPDHVRERAWLTWEKVSSVDGVLGGYIQKKKELWGICIFIAAVDLDEMSFTFTELQKNIEISVHKFFNLLKEIDTSTKVDNAMSRLLKKYDVLFALFSKLERTCELIYLTQPSSSISTEINSALVLKVSWITFLLAKGEVLQMEDDLVISFQLMLCVLDYFIKLSPPMLLKEPYKTAVIPINGSPRTPRRGQNRSARIAKQ
binding result (p65 NFκB protein [4]): binds
